Test in all cases: EMSA
Conditions in all cases: pH 7.9, temperature not given, scale: slope of unbound DNA vs protein
On the technique in general: Mobility shift assays separate free from complexed probe on a gel.

The test system of data set [1] is FlhD (E. coli);FlhC (S. enterica) (Escherichia coli;Salmonella enterica sv Typhimurium).
Data set [2] concerns FlhD (E. coli);FlhC (E. coli) (Escherichia coli;Escherichia coli).
Data set [3] deals with FlhD (S. enterica);FlhC (E. coli) (Salmonella enterica sv Typhimurium;Escherichia coli).
Data set [4] has as its system FlhD (S. enterica);FlhC (S. enterica) (Salmonella enterica sv Typhimurium;Salmonella enterica sv Typhimurium).

As to PflgAB promoter PCR product, the binding signal in data set [1] is -784; in data set [2] it was -1570; in data set [3] it was -1120; in data set [4] it was -906.

(Values after PMC6232118.)
